Reference: patent US20250066499A1 (SUNSHINE GUOJIAN PHARMACEUTICAL SHANGHAI, published 2025)

Key:
Assay in all cases: ELISA, high plateau value (OD 450 nm)
CD73-ND-V137A = target: T1, CD73-ND-V137A (human, UniProt P21589 27-317)
T1 construct: Alanine mutant of CD73-ND
T1 sequence: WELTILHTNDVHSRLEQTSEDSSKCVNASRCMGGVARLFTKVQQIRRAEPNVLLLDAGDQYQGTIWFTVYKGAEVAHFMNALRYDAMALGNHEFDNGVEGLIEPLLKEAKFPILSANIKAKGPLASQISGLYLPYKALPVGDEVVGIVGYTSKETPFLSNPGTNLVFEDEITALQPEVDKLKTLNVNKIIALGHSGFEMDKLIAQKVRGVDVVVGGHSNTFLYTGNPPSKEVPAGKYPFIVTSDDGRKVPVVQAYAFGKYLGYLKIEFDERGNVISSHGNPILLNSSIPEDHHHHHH
Protocol: (§1) The ELISA plates were coated with SA protein diluted to 1.5 μg/mL in coating buffer (50 mM carbonate coating buffer, pH 9.6) and incubated overnight at 4° C. The supernatant was discarded, and the plates were washed three times with PBST. Then, 5% skimmed milk powder prepared with PBS was added for blocking and the plates were incubated for 2 h at 37° C. After washing the plates once with PBST, CD73-biotin protein (prepared by biotinylating CD73-His protein according to the EZ-Link NHS-Biotin Reagent instructions) was diluted to 0.5 μg/mL and added at 100 μL/well for incubation at room temperature for 1 h. The plates were washed three times with PBST, and the prepared murine-derived monoclonal antibodies against human CD73 were serially diluted with 1% BSA buffer prepared with PBST and added to the ELISA plates at 100 μl/well. The plates were incubated at 37° C. for 1 h. After washing the plates three times with PBST, HRP-labeled goat anti-mouse IgG secondary antibody was added and the plates were incubated for 30 min at 37° C. After washing the plates three times with PBST, the residual droplets were patted dry on absorbent paper as much as possible. Then, 100 μl of TMB color developing solution was added to each well, and the plates were incubated in the dark at room temperature for 5 min for color development. Subsequently, 50 μl of 2M H₂SO₄ stop solution was added to each well to terminate the substrate reaction. The OD values were read at 450 nm using a multimode microplate reader to analyze the binding ability of the tested antibodies to the target antigen human CD73-His.
(§2) Referring to the experimental method in Example 3, the affinity of 48A11-HuV33 for various mutant proteins of CD73-ND was determined. The SA protein was diluted to 1 μg/mL for coating the ELISA plates, and the biotinylated CD73 protein (CD73-biotin) was used at a concentration of 0.1 μg/mL.

CD73-ND-L133A = target: T2, CD73-ND-L133A (human, UniProt P21589 27-317)
T2 construct: Alanine mutant of CD73-ND
T2 sequence: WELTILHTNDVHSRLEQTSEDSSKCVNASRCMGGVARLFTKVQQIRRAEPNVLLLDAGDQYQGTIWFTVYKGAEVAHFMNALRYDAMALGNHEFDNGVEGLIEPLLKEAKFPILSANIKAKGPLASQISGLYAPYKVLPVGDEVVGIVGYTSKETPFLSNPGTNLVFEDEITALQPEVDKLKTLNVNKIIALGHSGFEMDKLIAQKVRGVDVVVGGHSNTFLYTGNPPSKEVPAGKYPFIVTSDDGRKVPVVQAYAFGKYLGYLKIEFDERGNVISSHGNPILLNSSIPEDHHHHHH
Protocol: as §1, §2

CD73-ND-his = target: T3, CD73-ND-his (human, UniProt P21589 27-317)
T3 construct: Biotinylated and captured on streptavidin in the ELISA
T3 sequence: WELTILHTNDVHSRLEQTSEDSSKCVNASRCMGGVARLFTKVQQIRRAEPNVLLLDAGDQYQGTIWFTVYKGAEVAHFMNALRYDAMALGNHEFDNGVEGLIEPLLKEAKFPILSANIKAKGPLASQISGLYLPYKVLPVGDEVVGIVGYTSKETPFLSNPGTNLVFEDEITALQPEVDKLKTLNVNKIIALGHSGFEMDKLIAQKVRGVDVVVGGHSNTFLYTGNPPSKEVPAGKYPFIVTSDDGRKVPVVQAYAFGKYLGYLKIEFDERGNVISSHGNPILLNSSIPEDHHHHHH
Protocol: as §1, §2

CD73-ND-P134A = target: T4, CD73-ND-P134A (human, UniProt P21589 27-317)
T4 construct: Alanine mutant of CD73-ND
T4 sequence: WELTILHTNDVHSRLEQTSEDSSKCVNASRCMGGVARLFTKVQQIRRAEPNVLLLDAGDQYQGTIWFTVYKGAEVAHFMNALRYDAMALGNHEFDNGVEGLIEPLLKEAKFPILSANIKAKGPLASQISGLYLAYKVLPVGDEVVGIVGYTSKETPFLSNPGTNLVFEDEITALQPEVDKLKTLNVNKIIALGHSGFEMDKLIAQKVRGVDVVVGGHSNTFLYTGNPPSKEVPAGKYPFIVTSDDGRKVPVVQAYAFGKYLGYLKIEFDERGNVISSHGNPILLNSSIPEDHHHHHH
Protocol: as §1, §2

B1: 48A11-HuV33 (antibody, human IgG4, V domains shown)
VH: QVQLVQSGAEVKKPGASVKVSCKASGYTFTSYWMHWVRQAPGQGLEWIGEINPSIGRTNYNEKFKSRVTLTRDTSTSTAYMELSSLRSEDTAVYYCARRVYGTMDYWGQGTLVTVSS
VL: DIQMTQSPSSLSASVGDRVTITCKASQDINSYLSWFQQKPGKSPKLLIYRANIWVDGVPSRFSGSGSGQDYTFTISSLQPEDIATYYCLQYDELYTFGQGTKVEIK
notes: Humanized
Work on B1 yielded a Top (CD73-ND-V137A) of 1.6, a Top (CD73-ND-L133A) of 0.922 and a Top (CD73-ND-his) of 2.08. For the same binder, the Top (CD73-ND-P134A) was 1.97.
